Reference: doi:10.1101/2022.03.18.484873 (bioRxiv, 2022)

B1: P5C3 human monoclonal antibody (P5C3 LS) (antibody, V domains shown)
VH: QMQLVQSGPEVKKPGTSVKVSCKASGFTFTSSAVQWVRQARGQRLEWIGWIVVGSGNTDYAQQFQERVTITRDMSTSTAYMELSSLGSEDTAVYYCAAPNCSGGSCYDGFDLWGQGTMVTVSS
VL: EIVLTQSPGTLSLSPGERATLSCRGSQSVRSSYLGWYQQKPGQAPRLLIYGASSRATGIPDRFSGSGSGTDFTLTISRLEPEDFAVYYCQQYGSSPWTFGQGTKVEIK
B2: P2G3 human monoclonal antibody (P2G3 LS, human IgG1) (antibody, V domains shown)
VH: EVQLVESGGGLVQPGRSLRLSCAASGFRFDDYALHWVRQAPEKGLEWVSGISWNSNNIGYAESVKGRFTISRDTAKKSLYLQMNDLRAEDTALYYCVKDRHYDSSGYFVNGFDIWGQGTLVTVSA
VL: DIQLTQSPSFLSASVGDRVTVTCRASQGISSYVAWYQQKAGKAPTLLIYTASTLQSGVPSRFSGSGSGTEFTLTISSLQPEDFATYYCQQLHSYPVTFGQGTRLDIE

Molecular target: original 2019-nCoV Spike RBD protein (SARS-CoV-2, original 2019-nCoV (Wuhan), UniProt P0DTC2)
Assay: Luminex bead-based competitive binding assay

Binder	binding result
B1	binds
B2	binds
